The source of these data is article PMC5154190, “HBV maintains electrostatic homeostasis by modulating negative charges from phosphoserine and encapsidated nucleic acids” (Scientific Reports, 2016).

The labels stand for the following.
B1: HBc mutant S3A, expressed in HuH-7 cells (natural protein)
chain: MDIDPYKEFGATVELLSFLPSDFFPSVRDLLDTASALYREALESPEHCSPHHTALRQAILCWGELMTLATWVGVNLEDPASRDLVVSYVNTNMGLKFRQLLWFHISCLTFGRETVIEYLVSFGVWIRTPPAYRPPNAPILSTLPETTVVRRRGRAPRRRTPAPRRRRSQAPRRRRSQSRESQC
B2: HBc mutant S3D, expressed in HuH-7 cells (natural protein)
chain: MDIDPYKEFGATVELLSFLPSDFFPSVRDLLDTASALYREALESPEHCSPHHTALRQAILCWGELMTLATWVGVNLEDPASRDLVVSYVNTNMGLKFRQLLWFHISCLTFGRETVIEYLVSFGVWIRTPPAYRPPNAPILSTLPETTVVRRRGRDPRRRTPDPRRRRSQDPRRRRSQSRESQC
B3: HBc mutant S7A, expressed in HuH-7 cells (natural protein)
chain: MDIDPYKEFGATVELLSFLPSDFFPSVRDLLDTASALYREALESPEHCSPHHTALRQAILCWGELMTLATWVGVNLEDPASRDLVVSYVNTNMGLKFRQLLWFHISCLTFGRETVIEYLVSFGVWIRTPPAYRPPNAPILSTLPETTVVRRRGRAPRRRTPAPRRRRAQAPRRRRAQAREAQC
B4: HBc mutant S7D, E. coli-expressed (natural protein)
chain: MDIDPYKEFGATVELLSFLPSDFFPSVRDLLDTASALYREALESPEHCSPHHTALRQAILCWGELMTLATWVGVNLEDPASRDLVVSYVNTNMGLKFRQLLWFHISCLTFGRETVIEYLVSFGVWIRTPPAYRPPNAPILSTLPETTVVRRRGRDPRRRTPDPRRRRDQDPRRRRDQDREDQC
B5: HBc mutant S3D, E. coli-expressed (natural protein)
chain: MDIDPYKEFGATVELLSFLPSDFFPSVRDLLDTASALYREALESPEHCSPHHTALRQAILCWGELMTLATWVGVNLEDPASRDLVVSYVNTNMGLKFRQLLWFHISCLTFGRETVIEYLVSFGVWIRTPPAYRPPNAPILSTLPETTVVRRRGRDPRRRTPDPRRRRSQDPRRRRSQSRESQC
B6: HBc mutant S7D, expressed in HuH-7 cells (natural protein)
chain: MDIDPYKEFGATVELLSFLPSDFFPSVRDLLDTASALYREALESPEHCSPHHTALRQAILCWGELMTLATWVGVNLEDPASRDLVVSYVNTNMGLKFRQLLWFHISCLTFGRETVIEYLVSFGVWIRTPPAYRPPNAPILSTLPETTVVRRRGRDPRRRTPDPRRRRDQDPRRRRDQDREDQC

This series concerns the molecule itself. Description: native gel or EMSA.
As to B1, the binding result is reported as “binds”.
In the case of B2, the binding result is listed as “binds”.
In the case of B3, the binding result is “binds”.
Consider B4, for which the binding result is listed as “binds”.
As to B5, the binding result is recorded as “binds”.
With B6, the binding result was “binds”.
